Source: patent US20230312686A1 (Bristol-Myers Squibb, published 2023)
Where a chain is given by its changes, count along the chain named. “And” between values parts separate entries of the source, which are not always exact repeats. Equal entries are not always repeated.

B1: 6077_F02-FITC (designed binder)
chain: MGVSDVPRDLEVVAATPTSLLISWSDDYHAHRYYRITYGETGGNSPVQEFTVPGEHVTATISGLKPGVDYTITVYAVTYDGEKAATDWSISINYRTPCHHHHHH
modifications: fluorescein-5-maleimide on the C-terminal cysteine
notes: also called FITC-labeled ADX_6077_F02
B2: 6077_F02.dPEG (designed binder)
chain: B1 chain
modifications: dPEG, site and size not stated
notes: The PEGylation is not described; also called PEGylated anti-GPC3 adnectin (dPEG)
B3: 6077_F02-PEG3.4 (designed binder)
chain: B1 chain
modifications: PEG3.4, site not stated
notes: The PEGylation is not described; also called PEGylated anti-GPC3 adnectin (PEG3.4)
B4: ADX_6077_F02 DG→SG mutant, alkylated (designed binder)
chain: VSDVPRDLEVVAATPTSLLISWSDDYHAHRYYRITYGETGGNSPVQEFTVPGEHVTATISGLKPGVDYTITVYAVTYSGEKAATDWSISINYRTPC
modifications: C-terminal cysteine alkylated
notes: also called P1-055668
B5: ADX_6077_F02 DG→DA mutant, alkylated (designed binder)
chain: GVSDVPRDLEVVAATPTSLLISWSDDYHAHRYYRITYGETGGNSPVQEFTVPGEHVTATISGLKPGVDYTITVYAVTYDAEKAATDWSISINYRTPC
modifications: C-terminal cysteine alkylated
notes: also called P1-055660; PI-055660
B6: ADX_6077_F02 DG→AG mutant, alkylated (designed binder)
chain: B5 chain with D79A, A80G
modifications: C-terminal cysteine alkylated
notes: also called P1-055669
B7: ADX_6077_F02 DG→DL mutant, alkylated (designed binder)
chain: B5 chain with A80L
modifications: C-terminal cysteine alkylated
notes: also called P1-055671
B8: ADX_6077_F02 DG→DS mutant, alkylated (designed binder)
chain: B5 chain with A80S
modifications: C-terminal cysteine alkylated
notes: also called P1-055667
B9: ADX_6077_F02 DG→EG mutant, alkylated (designed binder)
chain: B5 chain with D79E, A80G
modifications: C-terminal cysteine alkylated
notes: also called P1-055673
B10: ADX_6093_A01-961(DAR2) (designed binder)
10Fn3 domain: MGVSDVPRDLEVVAATPTSLLISWDAPAVTVRYYRITYGETGGNSPVQEFTVPGSKSTATISGLKPGVDYTITVYAVTGRGESPASSKPISINYRTPCPPPPPCHHHHHH
modifications: the two C-terminal cysteines each carry the tubulysin analog-linker of formula (IV) (Drug/linker (2x), DAR2)
notes: It is the DAR2 counterpart of m12
B11: ADX_4578_F03 (designed binder)
chain: MGVSDVPRDLEVVAATPTSLLISWHPPHPNIVSYHIYYGETGGNSPVQEFTVEGSKSTAKISGLKPGVDYTITVYAVAPEIEKYYQIWINYRTEGSGS
B12: ADX_4578_H08 (designed binder)
chain: MGVSDVPRDLEVVAATPTSLLISWSGYDYGDSYYRITYGETGGNSPVQEFTVPDGSNTATISGLKPGVDYTITVYAVEAYGKGYTRYTPISINYRTEIDKPSQ
B13: ADX_4578_B06 (designed binder)
chain: MGVSDVPRDLEVVAATPTSLLISWFPDRYVYYITYGETGGNSPVQEFTVEGHKQTAYISGLKPGVDYTITVYAIYYYPDDFQGYPQPISINYRTEGSGS
B14: ADX_4606_F06 (designed binder)
chain: MGVSDVPRDLEVVAATPTSLLISWNSGHSGQYYRITYGETGGNSPVQEFTVPRYGYTATISGLKPGVDYTITVYAVAHSEASAPISINYRTEIDKPSQ
B15: ADX_5273_C01 (designed binder)
chain: MGVSDVPRDLEVVAATPTSLLISWSDPYEEERYYRITYGETGGNSPVQEFTVPAFHTTATISGLKPGVDYTITVYAVTYKHKYAYYYPPISINYRTEIDKPSQ
B16: ADX_5273_D01 (designed binder)
chain: MGVSDVPRDLEVVAATPTSLLISWEPSYKDDRYYRITYGETGGNSPVQEFTVPSFHQTATISGLKPGVDYTITVYAVTYEPDEYYFYYPISINYRTEIDKPSQ
B17: ADX_5274_E01 (designed binder)
chain: MGVSDVPRDLEVVAATPTSLLISWSGDYHPHRYYRITYGETGGNSPVQEFTVPGEHETATISGLKPGVDYTITVYAVTYDGEKADKYPPISINYRTEIDKPSQ
B18: ADX_6077_F02 DG→DV mutant, alkylated (designed binder)
chain: B5 chain with A80V
modifications: C-terminal cysteine alkylated
notes: also called P1-055672
B19: ADX_6077_F02 DG→GG mutant, alkylated (designed binder)
chain: B5 chain with D79G, A80G
modifications: C-terminal cysteine alkylated
notes: also called P1-055670

Target: T1, Recombinant human glypican-3 (aa 1-559), His-tagged, R&D Systems (human, UniProt P51654 25-559)
T1 construct: also called huGPC3; Hu GPC3-His
T1 sequence (P51654 other isoform, or with tags, fused parts or gaps): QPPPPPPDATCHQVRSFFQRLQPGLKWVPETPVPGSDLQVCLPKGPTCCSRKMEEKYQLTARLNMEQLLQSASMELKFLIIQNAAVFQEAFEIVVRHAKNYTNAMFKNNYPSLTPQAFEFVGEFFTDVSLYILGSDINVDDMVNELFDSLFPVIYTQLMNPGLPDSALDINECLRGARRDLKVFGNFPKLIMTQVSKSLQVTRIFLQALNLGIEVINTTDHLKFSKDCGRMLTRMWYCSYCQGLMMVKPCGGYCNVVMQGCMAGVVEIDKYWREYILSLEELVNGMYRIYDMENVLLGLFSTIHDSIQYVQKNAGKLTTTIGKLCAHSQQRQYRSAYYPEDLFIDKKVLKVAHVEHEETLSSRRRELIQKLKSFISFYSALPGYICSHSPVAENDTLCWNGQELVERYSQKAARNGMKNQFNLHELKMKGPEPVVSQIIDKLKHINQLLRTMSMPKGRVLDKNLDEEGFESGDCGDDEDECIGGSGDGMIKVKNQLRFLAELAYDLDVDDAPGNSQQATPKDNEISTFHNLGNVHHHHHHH
Test: SPR, as in the previous Examples
Experimental: (§1) For off-rate measurements, single 200 nM adnectin/AdxDC concentrations were injected using identical conditions. One 30s injection of 10 mM glycine pH 1.7 was used to remove bound adnectin and regenerate the GPC3 surfaces between assay cycles.
(§2) Rate constants kₐ (kₒₙ) and kd (koff) were derived from reference-subtracted sensorgrams fit to a 1:1 binding model in Biacore T100 Evaluation Software v2.0.4 (GE Healthcare). The affinity constant, KD was calculated from the ratio of rate constants kd/kₐ.
(§3) FITC Labeling: ADX_6077_F02 and non-binding control Adnectin were reduced with DTT or TCEP followed by G25 gel filtration chromatography or dialysis. Excess Fluorescein-5-maleimide reagent (Thermo Scientific) was then added and the mixture incubated at room temperature for approximately 2 hours followed by G25 gel filtration chromatography or extensive dialysis (3-4 buffer changes). The resulting degree of labeling was measured by absorbance following the manufacturer's instructions and/or by mass spectrometry. The binding affinities of FITC-labeled and PEGylated […] for human and murine GPC3 was evaluated as described in the previous Examples, and the results are summarized in Table 13.

| Binder | Kd | koff | kon |
| --- | --- | --- | --- |
| B1 | 0.00611 µM | 0.000498 s⁻¹ | 81500 M⁻¹ s⁻¹ |
| B2 | 0.00819 µM and 0.0081 µM | 0.000602 s⁻¹ and 0.000607 s⁻¹ | 73500 M⁻¹ s⁻¹ and 75000 M⁻¹ s⁻¹ |
| B3 | 0.00814 µM | 0.000584 s⁻¹ | 71800 M⁻¹ s⁻¹ |

Target: T2, Recombinant murine glypican-3 (aa 25-557), R&D Systems (murine, UniProt Q8CFZ4 25-557)
T2 construct: also called muGPC3; Mu GPC3-His
T2 sequence (Q8CFZ4 25-557 limits assumed, form in doubt): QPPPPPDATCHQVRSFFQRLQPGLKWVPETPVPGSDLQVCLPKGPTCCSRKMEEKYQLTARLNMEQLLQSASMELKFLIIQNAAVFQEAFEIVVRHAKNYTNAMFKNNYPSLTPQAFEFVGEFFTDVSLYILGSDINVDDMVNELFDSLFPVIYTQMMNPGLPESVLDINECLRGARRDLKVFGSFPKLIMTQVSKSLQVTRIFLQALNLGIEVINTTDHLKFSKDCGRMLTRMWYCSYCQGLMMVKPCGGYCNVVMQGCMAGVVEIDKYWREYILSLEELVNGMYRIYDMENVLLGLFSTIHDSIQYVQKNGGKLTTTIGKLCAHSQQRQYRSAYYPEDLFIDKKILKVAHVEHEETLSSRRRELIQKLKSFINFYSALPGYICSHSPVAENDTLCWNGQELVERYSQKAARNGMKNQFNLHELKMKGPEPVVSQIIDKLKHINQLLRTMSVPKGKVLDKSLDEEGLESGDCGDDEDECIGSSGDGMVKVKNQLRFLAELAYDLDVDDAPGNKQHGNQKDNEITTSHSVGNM
Test: SPR, as in the previous Examples
Experimental: as §1, §2, §3

| Binder | Kd | koff | kon |
| --- | --- | --- | --- |
| B1 | 0.00397 µM | 0.000446 s⁻¹ | 112000 M⁻¹ s⁻¹ |
| B2 | 0.00543 µM and 0.00526 µM | 0.000559 s⁻¹ and 0.000557 s⁻¹ | 103000 M⁻¹ s⁻¹ and 106000 M⁻¹ s⁻¹ |
| B3 | 0.00512 µM | 0.000523 s⁻¹ | 102000 M⁻¹ s⁻¹ |

Target: T3, Human glypican-3 on cells (Huh7, Hep3B, H446, Hep3B xenograft tissue) (human, UniProt P51654 25-554)
T3 construct: Endogenous GPC3 of human tumour cell lines; also called huGPC3 on cells; GPC3 receptor
T3 sequence (P51654 25-554 limits assumed): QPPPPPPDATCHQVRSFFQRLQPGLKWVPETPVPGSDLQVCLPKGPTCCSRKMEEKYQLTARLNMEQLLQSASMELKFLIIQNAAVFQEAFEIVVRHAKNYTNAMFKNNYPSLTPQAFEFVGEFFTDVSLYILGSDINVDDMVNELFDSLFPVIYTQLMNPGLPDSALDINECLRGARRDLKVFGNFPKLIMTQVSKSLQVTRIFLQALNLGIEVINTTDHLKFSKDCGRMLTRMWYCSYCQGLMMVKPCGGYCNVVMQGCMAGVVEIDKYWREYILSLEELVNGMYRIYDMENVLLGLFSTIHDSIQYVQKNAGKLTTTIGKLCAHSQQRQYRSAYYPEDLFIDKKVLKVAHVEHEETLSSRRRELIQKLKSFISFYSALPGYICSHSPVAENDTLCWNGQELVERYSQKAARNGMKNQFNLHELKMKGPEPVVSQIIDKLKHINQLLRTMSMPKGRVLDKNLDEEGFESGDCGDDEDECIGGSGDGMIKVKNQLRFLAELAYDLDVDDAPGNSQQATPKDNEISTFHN
Test: flow cytometry on Huh7 cells
Experimental: The binding of DG variants to huGPC3 in DG GPC3 AdxDCs mutants were evaluated by flow cytometry for binding to Huh7 carcinoma cells grown in DMEM media with 10% FBS. Cells were harvested using Versene, an EDTA cell dissociation solution from Lonza, Cat. #17-711E. Tumor cells (1E5 cells/reaction) were suspended in FACS buffer (PBS, 1% BSA, 0.05% Na Azide) and mixed with a serial dilution of AdxDC for one hour on ice. Cells were washed three times with FACS buffer, and bound AdxDC was detected with an in house anti-scaffold monoclonal Ab and PE-conjugated Antibody from (RnD Systems), cat #NL007, and read on a flow cytometer.

| Binder | huGPC3 on cells EC50 (mutant/parent) [fold] |
| --- | --- |
| B4 | 1.1 |
| B5 | 1.3 |
| B6 | 1.1 |
| B7 | 1.7 |
| B8 | 1.4 |
| B9 | 1.6 |

Target: T3, Human glypican-3 on cells (Huh7, Hep3B, …)
Test: flow cytometry on Hep3B cells, His Tag PE antibody
Experimental: GPC3 AdxDC were evaluated by flow cytometry for binding to human Hep3B hepatocellular carcinoma cells grown in MEM with 10% FBS, and H446 small cell lung carcinoma cells grown in RPMI with 10% FBS. Cells were harvested using Cellstripper, a non-enzymatic cell dissociation solution from Mediatch (Corning: Manassas, VA 20109), Cat. #25-056-CL. Tumor cells (25,000/reaction) were suspended in FACS buffer (PBS+5% FBS+0.01% NaN₃) and mixed with a serial dilution of AdxDC for 1 hour on ice. Cells were washed three times with FACS buffer, and bound AdxDC was detected with His Tag PE-conjugated Antibody from R&D System, cat #IC050P, and read on a flow cytometer.

| Binder | binding result |
| --- | --- |
| B10 | no binding (tested: about 30 nM) |

Target: T4, Human glypican-3, recombinant, construct not stated (human, UniProt P51654 25-559, limits assumed, biotin in the positional scanning (site not stated))
T4 construct: also called recombinant GPC3; human GPC3
T4 sequence (P51654 25-559 limits assumed): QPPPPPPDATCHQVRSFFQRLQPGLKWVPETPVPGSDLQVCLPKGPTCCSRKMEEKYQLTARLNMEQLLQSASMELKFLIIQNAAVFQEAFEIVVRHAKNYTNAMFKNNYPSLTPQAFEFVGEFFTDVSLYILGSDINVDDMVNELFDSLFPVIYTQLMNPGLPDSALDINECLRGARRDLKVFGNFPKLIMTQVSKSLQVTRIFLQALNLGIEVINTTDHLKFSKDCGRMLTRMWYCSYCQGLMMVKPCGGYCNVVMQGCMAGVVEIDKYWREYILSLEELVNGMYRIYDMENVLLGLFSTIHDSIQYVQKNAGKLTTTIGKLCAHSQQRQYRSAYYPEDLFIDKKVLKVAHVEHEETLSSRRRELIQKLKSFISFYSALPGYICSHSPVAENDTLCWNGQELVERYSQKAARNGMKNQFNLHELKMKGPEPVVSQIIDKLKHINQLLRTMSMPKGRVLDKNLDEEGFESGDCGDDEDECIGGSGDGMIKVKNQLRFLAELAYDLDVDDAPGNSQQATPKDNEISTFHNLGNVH
Test: ELISA, recombinant GPC3

| Binder | ELISA OD [OD] |
| --- | --- |
| B11 | 0.6 |
| B12 | 1.02 |
| B13 | 0.17 |
| B14 | 1.73 |
| B15 | 1.35 |
| B16 | 2.1 |
| B17 | 2.37 |

Target: T1, Recombinant human glypican-3 (aa …)
Test: SPR 1-point off-rate, alkylated mutant vs parent

| Binder | huGPC3 koff (mut/par) [fold] |
| --- | --- |
| B4 | 5.2 |
| B5 | 3.9 |
| B6 | 5.9 |
| B7 | 3.6 |
| B8 | 3.5 |
| B18 | 7.9 |
| B9 | 5.4 |
| B19 | 14 |

Target: T2, Recombinant murine glypican-3 (aa …)
Test: SPR 1-point off-rate, alkylated mutant vs parent

| Binder | muGPC3 koff (mut/par) [fold] |
| --- | --- |
| B4 | 4.8 |
| B5 | 3.7 |
| B6 | 5.5 |
| B7 | 3.1 |
| B8 | 3.3 |
| B18 | 7 |
| B9 | 5.1 |
| B19 | 12 |

Target: T1, Recombinant human glypican-3 (aa …)
Test: SPR, Biacore T100, GPC3-His immobilised, 1:1 fit
Experimental: (§4) The binding affinities of the alkylated GPC3 DG mutant adnectins for human and murine GPC3 were further evaluated by Biacore T100 using HBS-P+ running buffer with direct immobilization of human and mouse GPC3 proteins [Hu (Fc 2,3) and Mu (Fc 4) GPC3-His (R&D Systems)] with a 200-1.56 nM series injected for 180s association, 600s dissociation.

| Binder | Fold affinity (KD) difference vs alkylated parent [fold] | Kd [µM] | koff [s⁻¹] | kon [M⁻¹ s⁻¹] |
| --- | --- | --- | --- | --- |
| B4 | 4.2 | 0.0235 | 0.00221 | 94000 |
| B5 | 4.5 | 0.0254 | 0.00183 | 72200 |
| B6 | 4.2 | 0.0237 | 0.00243 | 103000 |
| B7 | 3.9 | 0.0219 | 0.00159 | 72600 |
| B8 | 4.2 | 0.0233 | 0.00166 | 71600 |
| B18 | 7.8 | 0.0435 | 0.00309 | 71000 |
| B9 | 5.3 | 0.03 | 0.00229 | 76300 |

Target: T2, Recombinant murine glypican-3 (aa …)
Test: SPR, Biacore T100, GPC3-His immobilised, 1:1 fit
Experimental: as §4

| Binder | Fold affinity (KD) difference vs alkylated parent [fold] | Kd [µM] | koff [s⁻¹] | kon [M⁻¹ s⁻¹] |
| --- | --- | --- | --- | --- |
| B4 | 4.1 | 0.016 | 0.002 | 130000 |
| B5 | 4.3 | 0.016 | 0.0017 | 100000 |
| B6 | 4 | 0.015 | 0.0021 | 140000 |
| B7 | 3.8 | 0.015 | 0.0015 | 100000 |
| B8 | 3.9 | 0.015 | 0.0015 | 100000 |
| B18 | 7.8 | 0.03 | 0.0025 | 85000 |
| B9 | 5.1 | 0.019 | 0.0021 | 110000 |
